Results on four molecules are retold here after patent publication US20060019342A1 (AstraZeneca / MedImmune, published 2006).

Substitutions are numbered along the chain they refer to. Names and notes keep the numbering of the source.

The target in assay [1] is T1, EphA2-Fc (UniProt P29317 25-534, limits assumed).
T1 construct: Amine-coupled to a CM5 chip; not shown: Fc part
The assay can be described thus: SPR (BIAcore 3000), EphA2-Fc immobilized on CM5 chip, soluble IgG, 1:1 Langmuir fit. The protocol:
(§1) The interaction of soluble 12G3, 4C10, 12G3/Mut and 4C10/Mut with immobilized EphA2-Fc was monitored by surface plasmon resonance detection using a BIAcore 3000 instrument (Pharmacia Biosensor, Uppsala, Sweden). EphA2-Fc was coupled to the dextran matrix of a CM5 sensor chip (Pharmacia Biosensor) using an Amine Coupling Kit as described (Johnsson et al. supra) at a surface density of 162 RU. IgGs were diluted in 0.01 M HEPES pH 7.4 containing 0.15 M NaCl, 3 mM EDTA and 0.005% P20. All subsequent dilutions were made in the same buffer. All binding experiments were performed at 25° C. with IgG concentrations typically ranging from 100 nM to 0.2 nM at a flow rate of 75 μL/min; data were collected for approximately 20 min and one 1-min pulse of 1M NaCl, 50 mM NaOH was used to regenerate the surfaces. IgGs were also flowed over an uncoated cell and the sensorgrams from these blank runs subtracted from those obtained with EphA2-Fc-coupled chips. Data were fitted to a 1:1 Langmuir binding model. This algorithm calculates both the kₒₙ and the koff, from which the apparent equilibrium dissociation constant, KD, is deduced as the ratio of the two rate constants (koff/kₒₙ).
(In general: In SPR one partner is held on a chip, and binding of the other changes the refractive index at the surface.)

Assay [2] has as its target T1, EphA2-Fc. The assay can be described thus: SPR (BIAcore 3000), EphA2-Fc immobilized on CM5 chip, soluble IgG, 1:1 Langmuir fit; below the limit of detection. The protocol: as §1

T1 sequence (P29317 25-534 limits assumed): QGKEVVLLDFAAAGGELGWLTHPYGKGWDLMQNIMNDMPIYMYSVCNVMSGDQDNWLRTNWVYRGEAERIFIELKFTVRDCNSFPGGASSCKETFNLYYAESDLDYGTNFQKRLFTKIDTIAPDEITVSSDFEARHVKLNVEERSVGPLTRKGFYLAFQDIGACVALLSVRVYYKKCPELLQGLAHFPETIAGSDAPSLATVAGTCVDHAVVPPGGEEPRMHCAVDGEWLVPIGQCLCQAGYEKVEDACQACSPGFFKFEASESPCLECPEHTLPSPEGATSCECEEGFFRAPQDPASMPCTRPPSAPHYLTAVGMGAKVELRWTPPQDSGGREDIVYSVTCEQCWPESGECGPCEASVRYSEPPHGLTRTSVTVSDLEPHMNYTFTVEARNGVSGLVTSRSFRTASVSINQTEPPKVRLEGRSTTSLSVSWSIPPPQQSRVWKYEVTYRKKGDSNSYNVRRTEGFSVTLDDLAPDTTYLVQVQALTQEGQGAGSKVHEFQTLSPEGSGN

B1: 12G3/M, heavy chain modified 12G3 (S60A/A61D, Kabat) (antibody, human IgG1, V domains shown)
VH: QMQLVQSGPEVKKPGTSVKVSCKASGFTFDDYSMNWVRQARGQRLEWIGFIRNKANDYTTEYADSVKGRVTITRDMSTSTAYMELSSLRSEDTAVYYCARYPRHHAMDSWGQGTSVTVSS
VL: DIQMTQSPSSLSASVGDRVTITCRASQSISNNLHWYQQKPGKAPKLLIKYAFQSISGVPSRFSGSGSGTDFTFTISSLQPEDFATYYCQQANSWPLTFGGGTKVEIK
notes: The light chain is unaltered; Human IgG1 / kappa; also called 12G3/Mut
As a reminder, the kon is a measure of how fast the partners come together. A word on the Kd: it is the constant that tells how readily two partners part at equilibrium. Low values mean higher affinity, high ones lower affinity. One may read the koff as a measure of how fast the partners let go of each other. Low values mean a long-lived complex, high ones a short-lived complex. Turning to B1, the kon in assay [1] worked out at 187000 M⁻¹ s⁻¹. Moreover, in assay [2], the Kd is below 0.027 nM and the koff is below 5e-06 s⁻¹.

B2: 12G3 humanized anti-EphA2 monoclonal antibody (antibody, human IgG1, V domains shown)
VH: B1 VH with A63S, D64A
VL: B1 VL
notes: Expressed as soluble human IgG1 (human gamma 1, human kappa)
In assay [1], B2 came in with a Kd of 0.034 nM, a koff of 8.49e-06 s⁻¹ and a kon of 246000 M⁻¹ s⁻¹.

B3: 4C10/M, heavy chain modified 4C10 (S60A/A61D, Kabat) (antibody, human IgG1, V domains shown)
VH: B1 VH with N35T, D57A
VL: B1 VL with A91S
notes: The light chain is unaltered; Human IgG1 / kappa; also called 4C10/Mut
In assay [1], B3 gave a Kd of 0.093 nM, a koff of 5.96e-06 s⁻¹ and a kon of 64100 M⁻¹ s⁻¹.

B4: 4C10 humanized anti-EphA2 monoclonal antibody (antibody, human IgG1, V domains shown)
VH: B1 VH with N35T, D57A, A63S, D64A
VL: B1 VL with A91S
notes: Expressed in HEK 293 cells as soluble human IgG1 (human gamma 1 heavy chain, human kappa light chain)
B4: in assay [1], the Kd stood at 0.095 nM, the koff amounted to 9.75e-06 s⁻¹ and the kon is 102000 M⁻¹ s⁻¹.
